# B1: CystC: full-length human Cystatin C (SEQ ID NO:2), C-terminally Myc- and (His)6-tagged, retrovirally expressed and secreted by the cells (protein, listed as Homo sapiens)
# chain: MAGPLRAPLLLLAILAVALAVSPAAGSSPGKPPRLVGGPMDASVEEEGVRRALDFAVGEYNKASNDMYHSRALQVVRARKQIVAGVNYFLDVELGRTTCTKTQPNLDNCPFHDQPHLKRKAFCSFQIYAVPWQGTMTLSKSTCQDA
# modifications: C-terminal Myc and His6 tags
# B2: Δ14CystC: human CystC with deletion of positions 80 to 93 (conserved cysteine proteinase inhibitor motif), retrovirally expressed and secreted (protein)
# chain: MAGPLRAPLLLLAILAVALAVSPAAGSSPGKPPRLVGGPMDASVEEEGVRRALDFAVGEYNKASNDMYHSRALQVVRARLGRTTCTKTQPNLDNCPFHDQPHLKRKAFCSFQIYAVPWQGTMTLSKSTCQDA
# modifications: left off: small tags and cut ends
# Assays:
# NRK kidney fibroblasts = experiment: NRK cell invasion through Matrigel matrices; format: cell-based, rat; settings: expression in NRK cells, 48 hours, p<0.05; for TGF-β-stimulated NRK cell invasion through synthetic basement membranes: TGF-β1 5 ng/ml
# Description: This hypothesis was tested by infecting NRK cells with bicistronic retrovirus encoding either CystC or Δ14CystC to determine their effects on NRK anchorage-independent growth stimulated by TGF-β. Briefly, rat NRK kidney fibroblasts were infected with control (i.e., pMSCV-IRES-GFP), CystC, or Δ14CystC retroviral supernatants, and the resulting infected cells were isolated by GFP fluorescence on a MoFlo cell sorter 48 hours later. Control, CystC-, and Δ14CystC-expressing NRK cells were cultured in soft-agar in the absence or presence of TGF-β1 (5 ng/ml) for 7 d, whereupon NRK colony formation was quantified by light microscopy. In addition, control, CystC-, and Δ14CystC-expressing NRK cells were allowed to invade through Matrigel matrices in the absence or presence of TGF-β1 (5 ng/ml) for 48 hours.
# HT1080 cells = experiment: Migration of HT1080 cells to fibronectin; format: cell-based, human; settings: overexpression in HT1080 cells; data not shown
# TGF-β1 = TGF-β1 (Homo sapiens, UniProt P01137); experiment: Co-immunoprecipitation and affinity pull-down of CystC with TGF-β1; format: binding; settings: data not shown
# Chain of TGF-β1 (P01137 279-390 limits assumed, species assumed): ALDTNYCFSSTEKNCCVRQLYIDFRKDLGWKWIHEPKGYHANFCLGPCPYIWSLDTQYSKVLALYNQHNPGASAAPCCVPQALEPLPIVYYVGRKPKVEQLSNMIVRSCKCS
# TGF-β signaling = experiment: p3TP-luciferase reporter gene assay in 3T3-L1 cells; format: cell-based, murine; settings: expression in 3T3-L1 cells; TGF-β1 0-5 ng/ml; compared to control cells
# Description: Analysis of luciferase activity driven by the synthetic p3TP reporter ((26); generously provided by Dr. Joan Massague, Sloan Kettering) was performed as described previously (42). Briefly, control, CystC-, or Δ14CystC-expressing 3T3-L1 or HT1080 cells were cultured onto 24-well plates at a density of 45,000 cells/well and allowed to adhere overnight. The cells were transiently transfected the following morning by overnight exposure to LT1 liposomes (Mirus) containing 300 ng/well p3TP-luciferase and 100 ng/well of pCMV-β-gal. Afterward, the cells were washed twice with PBS and stimulated overnight in serum-free media with increasing concentrations of TGF-β1 as indicated. The following morning, luciferase and β-gal activities contained in detergent-solubilized cell extracts were determined.
# In some experiments, the effects of recombinant CystC and D14CystC on p3TP-luciferase activity 3T3-L1 cells was determined. […] All subsequent procedures were performed as described above.
# The present inventor's findings that TGF-β signaling was inhibited by CystC (FIGS. 1 and 2) independent of its actions on cathepsin B lead them to hypothesize CystC as a general antagonist of TGF-β signaling. To test this hypothesis, changes in p3TP-driven luciferase activity were monitored in control, CystC-, Δ14CystC-expressing cells before and after their stimulation with TGF-β. Briefly, GFP-, CystC-, or Δ14CystC-expressing 3T3-L1 cells were transiently transfected with p3TP-luciferase and pCMV-β-gal, and subsequently stimulated with increasing concentrations of TGF-β1 (0-5 ng/ml) as indicated in FIG. 3A. Afterward, luciferase and β-gal activities contained in detergent-solubilized cell extracts were measured. […] Data are the mean (±SE) luciferase activities of four independent experiments normalized to untreated GFP-expressing cells.
# The transfectants were then stimulated with TGF-β1 (5 ng/ml) in the absence or presence of recombinant (10 mg/ml) GST, GST-CystC, or GST-D14CystC as indicated in FIG. 3B. […]
# 3T3-L1 cells [1] = experiment: DNA synthesis in 3T3-L1 cells; format: cell-based, murine; settings: data not shown
# 3T3-L1 cells [2] = experiment: Migration of 3T3-L1 cells to fibronectin; format: cell-based, murine; settings: data not shown
# cathepsin B = cathepsin B (Homo sapiens, UniProt P07858); settings: mutant lacks the cysteine inhibitor motif; reference 23; cited from earlier work
Molecule,tonic NRK cell invasion (NRK kidney fibroblasts),TGF-β-stimulated NRK cell invasion through synthetic basement membranes (NRK kidney fibroblasts),migration of HT1080 cells to fibronectin (HT1080 cells),direct physical interaction with TGF-β1 (TGF-β1),TGF-β-stimulated luciferase activity (p3TP) (TGF-β signaling),3T3-L1 cell DNA synthesis (3T3-L1 cells [1]),3T3-L1 cell migration to fibronectin (3T3-L1 cells [2]),inactivation of cathepsin B (cathepsin B)
B1,inhibited significantly,inhibited significantly,failed to effect,failed to demonstrate a direct physical interaction,significantly reduced,failed to effect,failed to effect,–
B2,–,inhibited significantly,failed to effect,–,significantly reduced,–,–,unable to inactivate
